This note sets out measurements from paper PMC11257539.

This assay concerns the target full-length human VARP with a C-terminal 10xHis tag (human) (UniProt Q96NW4). The assay is described as follows: BLI. On the technique in general: In BLI a coated tip is dipped into the sample, and binding shifts an interference pattern.

full-length human VARP with a C-terminal 10xHis tag (human), sequence (Q96NW4 whole entry): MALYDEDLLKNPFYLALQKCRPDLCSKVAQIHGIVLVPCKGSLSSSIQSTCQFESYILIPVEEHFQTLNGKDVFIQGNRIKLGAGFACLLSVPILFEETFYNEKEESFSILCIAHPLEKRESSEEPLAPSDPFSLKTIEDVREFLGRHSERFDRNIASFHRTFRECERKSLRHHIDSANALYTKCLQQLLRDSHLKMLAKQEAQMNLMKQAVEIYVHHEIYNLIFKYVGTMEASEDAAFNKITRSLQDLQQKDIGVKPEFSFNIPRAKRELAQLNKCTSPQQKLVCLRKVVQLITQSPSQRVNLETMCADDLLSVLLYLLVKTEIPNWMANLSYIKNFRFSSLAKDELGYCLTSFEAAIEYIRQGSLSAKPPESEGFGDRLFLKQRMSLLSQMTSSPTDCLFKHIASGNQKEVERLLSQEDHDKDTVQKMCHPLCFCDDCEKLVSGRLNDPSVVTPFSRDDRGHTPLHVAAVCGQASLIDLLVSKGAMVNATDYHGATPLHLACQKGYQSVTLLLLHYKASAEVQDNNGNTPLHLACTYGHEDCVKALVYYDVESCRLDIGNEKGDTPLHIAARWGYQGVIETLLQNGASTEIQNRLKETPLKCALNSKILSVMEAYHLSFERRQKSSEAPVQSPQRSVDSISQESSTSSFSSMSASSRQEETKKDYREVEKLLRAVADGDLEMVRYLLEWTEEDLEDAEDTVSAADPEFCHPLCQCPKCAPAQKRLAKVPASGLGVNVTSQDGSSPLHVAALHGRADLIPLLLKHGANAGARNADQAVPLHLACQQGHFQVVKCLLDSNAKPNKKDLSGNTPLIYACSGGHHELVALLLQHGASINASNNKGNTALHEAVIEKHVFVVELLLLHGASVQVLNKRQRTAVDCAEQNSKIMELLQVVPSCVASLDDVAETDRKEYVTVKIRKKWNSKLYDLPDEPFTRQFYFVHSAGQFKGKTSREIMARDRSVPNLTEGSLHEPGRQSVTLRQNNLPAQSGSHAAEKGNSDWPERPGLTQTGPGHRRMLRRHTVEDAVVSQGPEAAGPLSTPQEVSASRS

“Retromer heterotrimer (VPS26/VPS35/VPS29 subunits) (from UniProt O75436;Q96QK1;Q9UBQ0) (complex)”: the ka1 is 5040 M⁻¹ s⁻¹, the ka2 stood at 0.0535 M⁻¹ s⁻¹, the kdis1 was 0.000363 s⁻¹ and the kdis2 was found to be 0.00891 s⁻¹.
